Numbering of substitutions follows the chain as printed.
B1: J1-65D (antibody, V domains shown)
VH: QVQLQQPGAELVRPGASVKLSCKALGYTFTDYEMHWVKETPVHGLEWIGAIQPGGGGTAYNQKFKGKATLTADKSSSTAYMELSSLTSEDSAVYYCTRRGYDDYPFAYWGQGTLVTVSS
VL: DIQLTQSPASLSASVGETVTITCRASGNIHNYLAWYQQKQGKSPQLLVYNAKTLADDIPSRFSGSGSGTQYSLKINSLQPEDFGSYYCQHFWSAPWTFGGGTKLEIK
B2: J1-65D variant 1 (antibody, human IgG1, V domains shown)
VH: QVQLVQSGAELKKPGSSVKVSCKASGYTFTDYEMHWVRQAPGQGLEWMGAIQPGGGGTAYNQKFKGRVTLTADKSTSTAYMELSSLRSEDTAVYYCTRRGYDDYPFAYWGQGTLVTVSS
VL: DIQMTQSPSSLSASVGDRVTITCRASGNIHNYLAWYQQKPGKAPKLLIYNAKTLADDVPSRFSGSGSGTDYTLTISSLQPEDFATYYCQHFWSAPWTFGGGTKLEIKR
notes: human IgG1; also called J1-65DV1; V1
B3: J1-65D variant 2 (antibody, human IgG1, V domains shown)
VH: B2 VH with N61A
VL: B2 VL
notes: human IgG1; also called J1-65DV2; V2
B4: J1-65D variant 3 (antibody, human IgG1, V domains shown)
VH: B2 VH with L11V, N61A, K65Q
VL: B2 VL
notes: human IgG1; also called J1-65DV3; V3
B5: J1-65D variant 4 (antibody, human IgG1, V domains shown)
VH: B2 VH with L11V, N61A, K65Q, L70I
VL: B2 VL
notes: human IgG1; also called J1-65DV4; V4
B6: J1-65D variant 5 (antibody, human IgG1, V domains shown)
VH: B2 VH
VL: B2 VL with D57A
notes: human IgG1; also called J1-65DV5; V5
B7: J1-65D variant 7 (antibody, human IgG1, V domains shown)
VH: B2 VH with L11V, N61A, K65Q
VL: B2 VL with D57A
notes: human IgG1; also called J1-65DV7; V7
B8: J1-65D variant 8 (antibody, human IgG1, V domains shown)
VH: B2 VH with L11V, N61A, K65Q, L70I
VL: B2 VL with D57A
notes: human IgG1; also called J1-65DV8; V8
B9: J1-65D variant 9 (antibody, human IgG1, V domains shown)
VH: B2 VH
VL: B2 VL with D57A, G100Q
notes: human IgG1; also called J1-65DV9; V9
B10: J1-65D variant 10 (antibody, human IgG1, V domains shown)
VH: B2 VH with N61A
VL: B2 VL with D57A, G100Q
notes: human IgG1; also called J1-65DV10; V10
B11: J1-65D variant 11 (antibody, human IgG1, V domains shown)
VH: B2 VH with L11V, N61A, K65Q
VL: B2 VL with D57A, G100Q
notes: human IgG1; also called J1-65DV11; V11
B12: J1-65D variant 12 (antibody, human IgG1, V domains shown)
VH: B2 VH with L11V, N61A, K65Q, L70I
VL: B2 VL with D57A, G100Q
notes: human IgG1; also called J1-65DV12; V12
B13: J1-183D (antibody, V domains shown)
VH: QVQLQQPGTELVRPGVSVKISCKVSGYAFTDYAIHWIMQSHAKSLEWIGIINTYYGDSKYNQKFKDKATMTVDKSSNTAYMELARLTSEDSAIYYCARGYDGFAYWGQGTLVTVSS
VL: DIQLTQSPASLSASVGETVTFTCRTSENIYSYLTWYQQKQGKSPQLLVYNAKILAAGVPSRFSGYGSGTQFSLKINSLQPEDFGTYYCQHHYDIPWTFGGGTKLEIK

Experiments:
[1] = target: T1, J1 DSL-EGF3 soluble recombinant protein (human Jagged 1 amino acids 185-335) (human, UniProt P78504 185-335); assay: affinity to the immunogen J1-DE3; method not stated
T1 construct: biotinylated in the CD46 ELISA; also called J1-DE3; DSL+EGF1-3

[2] = target: T1, J1 DSL-EGF3 soluble recombinant protein …; assay: SPR (Biacore), mAb immobilised, J1 protein in flow
[3] = target: T2, J1-NE3 (human Jagged 1, entire N-terminus until the third EGF domain) (human, UniProt P78504 32-335, limits assumed); assay: SPR (Biacore), mAb immobilised, J1 protein in flow
T2 construct: domain: entire N-terminus until the third EGF domain; eukaryotically expressed soluble form used in SPR

[4] = target: T3, J1-NE12 (human Jagged 1, entire N-terminus to EGF12) (human, UniProt P78504 32-703); assay: SPR (Biacore), mAb immobilised, J1 protein in flow
T3 construct: domain: entire N-terminus to EGF12; eukaryotically expressed soluble form used in SPR

[5] = target: T4, human Jagged 1, full length, on cells (human, UniProt P78504 34-1218); assay: FACS competition, HEK293-J1 cells, against biotinylated J1-65D 1.0 µg/ml
T4 construct: whole, on cells; the cell is named under assay; also called hJ1; J1

[6] = target: T4, human Jagged 1, full length, on cells; assay: FACS competition, HEK293-J1 cells, against biotinylated J1-156A 1.0 µg/ml
[7] = target: T4, human Jagged 1, full length, on cells; assay: FACS competition, HEK293-J1 cells, against biotinylated J1-187B 1.0 µg/ml
[8] = target: T5, human Jagged 2, full length, on HEK293 cells (human, UniProt Q9Y219 24-1238); assay: FACS, 293-JAG2 cells, anti-human-APC
T5 construct: whole, on cells; also called J2; hJ2
Experimental: FIG. 18. […] Samples were analysed by FACS and the mean fluorescence intensities (MFI) were plotted. […] With the exception of J1-65D variants 13-16, all the remaining antibodies effectively bound the human J1 protein.
(§1) HEK293 cells transfected with human J1, J2 or FLAG-EGFP-tagged DSL-EGF3 constructs, B16F10 cells transfected with human DLL4 or mouse J1, and human cancer cell lines, were stained with either purified anti-J1 antibodies at 10 μg/ml diluted in FACS wash buffer (2% FBS in PBS+0.1% sodium azide) or neat hybridoma supernatants followed by a allophycocyanin (APC)-conjugated secondary antibody at 1:200 dilution: for murine primary antibodies, used goat anti-mouse-APC (eBioscience); for humanised and chimeric antibodies used goat anti-human IgG (H+L) secondary antibody (Jackson ImmunoResearch Laboratories). After washing, samples were fixed with 1% paraformaldehyde (in PBS) and acquired with a FACSCalibur. FACS data were analysed with FlowJo software (TreeStar Inc.).

[9] = target: T6, murine Jagged 1, full length, on B16F10 cells (mouse, UniProt Q9QXX0 34-1218); assay: FACS, B16F10-mJAG1 cells, anti-human-APC
T6 construct: whole, on cells; GFP co-expressed; also called mJ1; B16F10-mJAG1
Experimental: FIG. 19. […] Samples were analysed by FACS and the mean fluorescence intensities (MFI) were plotted.
as §1

T1 sequence (P78504 185-335, form in doubt): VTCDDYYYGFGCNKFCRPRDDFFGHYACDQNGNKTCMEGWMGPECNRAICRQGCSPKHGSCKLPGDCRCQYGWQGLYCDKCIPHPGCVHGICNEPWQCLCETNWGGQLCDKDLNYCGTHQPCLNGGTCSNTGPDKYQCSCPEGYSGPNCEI
T5 sequence (Q9Y219 24-1238): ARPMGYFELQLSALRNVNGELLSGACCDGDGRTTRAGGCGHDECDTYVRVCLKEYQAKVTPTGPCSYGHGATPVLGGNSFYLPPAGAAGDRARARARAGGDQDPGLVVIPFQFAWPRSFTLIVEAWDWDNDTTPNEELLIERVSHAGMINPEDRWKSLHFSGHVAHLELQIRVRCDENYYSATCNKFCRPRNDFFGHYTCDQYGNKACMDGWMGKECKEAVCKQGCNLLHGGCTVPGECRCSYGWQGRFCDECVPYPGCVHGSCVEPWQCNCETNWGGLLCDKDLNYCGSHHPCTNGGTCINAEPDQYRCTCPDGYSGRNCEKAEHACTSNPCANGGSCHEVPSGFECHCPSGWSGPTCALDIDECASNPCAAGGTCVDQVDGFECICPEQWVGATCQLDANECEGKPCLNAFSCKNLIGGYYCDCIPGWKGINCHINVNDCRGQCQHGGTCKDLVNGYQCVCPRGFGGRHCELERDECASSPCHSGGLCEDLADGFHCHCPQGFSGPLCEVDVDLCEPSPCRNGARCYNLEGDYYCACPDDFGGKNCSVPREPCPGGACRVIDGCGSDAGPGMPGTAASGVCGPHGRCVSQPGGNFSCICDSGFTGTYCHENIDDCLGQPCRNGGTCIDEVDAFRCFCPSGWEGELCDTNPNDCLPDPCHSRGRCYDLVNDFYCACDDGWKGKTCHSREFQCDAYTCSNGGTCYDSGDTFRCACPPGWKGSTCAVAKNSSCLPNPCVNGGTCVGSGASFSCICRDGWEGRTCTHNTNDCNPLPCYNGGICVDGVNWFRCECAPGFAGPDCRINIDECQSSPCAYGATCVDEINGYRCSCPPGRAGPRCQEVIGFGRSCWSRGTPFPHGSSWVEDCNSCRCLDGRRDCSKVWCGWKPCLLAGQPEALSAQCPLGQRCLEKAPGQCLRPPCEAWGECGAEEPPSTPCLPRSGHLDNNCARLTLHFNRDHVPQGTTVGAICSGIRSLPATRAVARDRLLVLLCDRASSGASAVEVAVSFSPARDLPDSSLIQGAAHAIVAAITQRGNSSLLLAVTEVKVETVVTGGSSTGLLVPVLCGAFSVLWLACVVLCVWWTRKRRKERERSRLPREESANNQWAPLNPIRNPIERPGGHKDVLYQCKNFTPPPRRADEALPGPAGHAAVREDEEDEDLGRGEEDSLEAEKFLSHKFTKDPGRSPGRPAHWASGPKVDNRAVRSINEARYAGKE
T6 sequence (Q9QXX0 34-1218, one chain of several): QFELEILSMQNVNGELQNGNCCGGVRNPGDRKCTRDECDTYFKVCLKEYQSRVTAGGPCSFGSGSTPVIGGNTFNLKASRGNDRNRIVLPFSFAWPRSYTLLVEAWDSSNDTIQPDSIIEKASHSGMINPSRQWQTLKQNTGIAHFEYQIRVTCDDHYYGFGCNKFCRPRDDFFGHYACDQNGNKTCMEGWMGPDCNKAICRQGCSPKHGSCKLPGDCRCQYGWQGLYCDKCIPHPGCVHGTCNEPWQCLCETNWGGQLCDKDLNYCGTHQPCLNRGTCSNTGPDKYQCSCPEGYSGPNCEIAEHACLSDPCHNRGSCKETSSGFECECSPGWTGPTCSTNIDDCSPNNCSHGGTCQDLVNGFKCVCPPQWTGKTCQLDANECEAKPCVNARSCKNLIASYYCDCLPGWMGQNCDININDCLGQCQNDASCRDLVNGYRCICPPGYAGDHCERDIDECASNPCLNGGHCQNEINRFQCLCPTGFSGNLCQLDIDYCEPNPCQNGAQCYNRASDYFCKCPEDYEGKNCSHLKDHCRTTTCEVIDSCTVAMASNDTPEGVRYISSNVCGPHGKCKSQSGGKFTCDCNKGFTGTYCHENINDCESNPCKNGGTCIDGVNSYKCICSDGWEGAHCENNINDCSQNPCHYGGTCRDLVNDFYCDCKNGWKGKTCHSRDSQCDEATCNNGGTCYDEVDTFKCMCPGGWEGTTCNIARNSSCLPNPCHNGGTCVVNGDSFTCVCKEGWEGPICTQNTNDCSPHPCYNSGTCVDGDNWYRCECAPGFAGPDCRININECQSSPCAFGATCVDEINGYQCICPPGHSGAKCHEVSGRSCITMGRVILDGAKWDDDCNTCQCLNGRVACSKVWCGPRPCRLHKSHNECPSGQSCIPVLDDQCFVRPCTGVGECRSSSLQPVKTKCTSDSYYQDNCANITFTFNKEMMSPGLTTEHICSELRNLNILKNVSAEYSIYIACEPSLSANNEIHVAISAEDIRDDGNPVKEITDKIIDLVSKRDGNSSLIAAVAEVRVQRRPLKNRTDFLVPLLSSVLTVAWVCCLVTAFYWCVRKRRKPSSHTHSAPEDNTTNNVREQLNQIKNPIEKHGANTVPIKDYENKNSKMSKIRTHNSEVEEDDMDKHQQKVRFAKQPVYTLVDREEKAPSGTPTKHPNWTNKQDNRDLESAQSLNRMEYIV
T4 sequence (P78504 34-1218): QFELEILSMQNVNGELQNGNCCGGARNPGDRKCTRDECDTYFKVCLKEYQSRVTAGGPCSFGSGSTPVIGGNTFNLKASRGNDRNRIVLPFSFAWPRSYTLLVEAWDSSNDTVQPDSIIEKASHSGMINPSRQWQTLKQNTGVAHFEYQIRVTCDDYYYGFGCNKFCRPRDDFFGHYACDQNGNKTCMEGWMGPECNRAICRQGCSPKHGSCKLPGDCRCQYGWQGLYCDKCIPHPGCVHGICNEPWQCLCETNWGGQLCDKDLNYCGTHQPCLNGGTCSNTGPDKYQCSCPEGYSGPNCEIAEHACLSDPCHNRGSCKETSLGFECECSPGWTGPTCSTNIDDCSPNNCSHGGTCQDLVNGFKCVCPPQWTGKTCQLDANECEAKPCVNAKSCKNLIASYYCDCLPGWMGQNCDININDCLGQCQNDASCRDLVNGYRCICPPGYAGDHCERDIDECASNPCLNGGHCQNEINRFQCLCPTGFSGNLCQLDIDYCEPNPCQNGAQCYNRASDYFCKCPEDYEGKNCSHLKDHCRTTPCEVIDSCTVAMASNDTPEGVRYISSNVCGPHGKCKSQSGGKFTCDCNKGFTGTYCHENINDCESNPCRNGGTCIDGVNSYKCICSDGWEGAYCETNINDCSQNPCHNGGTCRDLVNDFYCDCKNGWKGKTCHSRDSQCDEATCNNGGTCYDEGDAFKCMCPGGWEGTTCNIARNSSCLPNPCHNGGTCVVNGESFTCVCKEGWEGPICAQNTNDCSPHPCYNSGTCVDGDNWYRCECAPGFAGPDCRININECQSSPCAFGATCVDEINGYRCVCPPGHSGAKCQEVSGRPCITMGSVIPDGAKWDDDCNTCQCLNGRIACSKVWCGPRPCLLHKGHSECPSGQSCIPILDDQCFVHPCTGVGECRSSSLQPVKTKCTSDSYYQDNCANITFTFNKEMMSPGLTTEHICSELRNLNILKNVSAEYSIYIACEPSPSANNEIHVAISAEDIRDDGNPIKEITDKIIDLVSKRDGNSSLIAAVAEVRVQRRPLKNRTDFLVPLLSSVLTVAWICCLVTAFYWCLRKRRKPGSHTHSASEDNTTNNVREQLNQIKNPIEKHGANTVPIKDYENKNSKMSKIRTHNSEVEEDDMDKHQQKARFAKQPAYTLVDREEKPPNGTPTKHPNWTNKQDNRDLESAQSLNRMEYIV

Binder | Kd [1] [pM] | Kd [2] [pM] | Kd [3] [pM] | Kd [4] [pM] | IC50 (read off the curve) [5] [µg/mL] | IC50 (read off the curve) [6] [µg/mL] | IC50 (read off the curve) [7] [µg/mL] | binding result [8] | binding result [9]
B1 | 130 | 9700 | 3300 | 3000 | ~1 | ~0.6 | ~0.5 |  | 
B2 | 150 |  |  |  |  |  |  | no binding (tested: 10 ug/ml) | no binding (tested: 10 ug/ml)
B3 | 165 |  |  |  |  |  |  | no binding (tested: 10 ug/ml) | no binding (tested: 10 ug/ml)
B4 | 158 |  |  |  |  |  |  | no binding (tested: 10 ug/ml) | no binding (tested: 10 ug/ml)
B5 | 94.9 |  |  |  |  |  |  | no binding (tested: 10 ug/ml) | no binding (tested: 10 ug/ml)
B6 | 44.6 |  |  |  |  |  |  | no binding (tested: 10 ug/ml) | no binding (tested: 10 ug/ml)
B7 | 151 |  |  |  |  |  |  | no binding (tested: 10 ug/ml) | no binding (tested: 10 ug/ml)
B8 | 71.7 |  |  |  |  |  |  | no binding (tested: 10 ug/ml) | no binding (tested: 10 ug/ml)
B9 | 13.9 |  |  |  |  |  |  | no binding (tested: 10 ug/ml) | no binding (tested: 10 ug/ml)
B10 | 293 |  |  |  |  |  |  | no binding (tested: 10 ug/ml) | no binding (tested: 10 ug/ml)
B11 | 243 |  |  |  |  |  |  | no binding (tested: 10 ug/ml) | no binding (tested: 10 ug/ml)
B12 | 80.6 |  |  |  |  |  |  | no binding (tested: 10 ug/ml) | no binding (tested: 10 ug/ml)
B13 | 580 | 4900 | 5200 | 4400 |  |  |  |  | 

From patent US20160108128A1 (CANCER RESEARCH TECHNOLOGY, published 2016)
